Assay [1] has as its target T1, HTRA1 (construct not given) (Homo sapiens (Human), UniProt Q92743 23-480, limits assumed). Briefly: cell-based or functional assay.
Assay [2] deals with human delta N-HTRA1 (amino acids 156-480 of SEQ ID NO:1) (human, UniProt Q92743 156-480). Put plainly: SPR (Biacore); antibody captured by anti-Fc, human delta N-HTRA1 injected; temperature of this table not stated. As for the experimental part: (§1) The binding affinities of anti-HTRA1 antibodies to human HTRA1 were measured using a Biacore system (GE Healthcare Life Sciences). Briefly, anti-Fc antibody (Sigma-Aldrich) was immobilized on all four flow cells of a CMS chip using amine coupling reagents (GE Healthcare LifeSciences). Antibodies were captured on flow cells 2, 3, and 4 using flow cell 1 as a reference. Concentrations ranging from 3.3-10 nM of human delta N-HTRA1 were injected at a flow rate of 50 μL/min at 37° C. Kinetic data were collected over time and fit using the simultaneous global fit equation to yield affinity constants (KD values) for each antibody.
human delta N-HTRA1 (amino acids 156-480 of SEQ ID NO:1), sequence (Q92743 156-480, stated change not applied): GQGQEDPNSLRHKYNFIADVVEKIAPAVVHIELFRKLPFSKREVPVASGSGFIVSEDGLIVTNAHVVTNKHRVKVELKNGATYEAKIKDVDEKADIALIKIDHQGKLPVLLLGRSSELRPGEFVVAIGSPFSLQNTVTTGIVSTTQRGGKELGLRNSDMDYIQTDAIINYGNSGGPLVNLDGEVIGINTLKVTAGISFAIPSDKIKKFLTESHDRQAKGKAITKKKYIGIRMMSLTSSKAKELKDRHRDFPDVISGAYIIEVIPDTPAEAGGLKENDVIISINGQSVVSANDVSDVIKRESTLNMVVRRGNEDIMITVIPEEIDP

The target in assay [3] is T1, HTRA1 (construct not stated in the …). Put plainly: protease inhibition assay, casein substrate (EnzChek); apparent Ki (Ki^app). The text has this:
Two enzymatic assays were used to characterize HTRA1 protease activity and evaluate inhibitory activity of anti-HTRA1 antibodies. EnzChek® Protease Assay Kit (ThermoFisher Scientific) was used following the manufacturer's instructions. This kit contains casein protein that is heavily labeled with the pH-insensitive green-fluorescent BOPIPY® FL dye that results in almost total quenching of the conjugate's fluorescence. Protease-catalyzed hydrolysis of labeled casein releases highly fluorescent BODIPY® FL dye-labeled peptides. The concomitant increase in fluorescence is proportional to protease activity.
Antibodies identified in HTRA1 binding assays were tested for their ability to inhibit HTRA1 protease activity. The range of antibody concentrations was tested to establish a dose response curve and determine IC₅₀ values.

Assay [4] shares this target. Briefly: protease inhibition assay, H2-Opt peptide substrate (FRET); apparent Ki (Ki^app).
The target is the same in assay [5]. Briefly: SPR (Biacore). As for the experimental part: as §1
In order to determine whether a hz24F7.v2 variant, comprising one of the amino acid substitutions disclosed in Table 15, retains its HTRA1 binding capability, functional characterization was performed via an SPR assay as described herein and an HTRA1 enzyme assay.

Assay [6] shares this target. Briefly: cell-based or functional assay. The source holds these as a separate data set.
Assay [7] shares this target. Put plainly: cell-based or functional assay. The source holds these as a separate data set.
Assay [8] shares this target. Briefly: cell-based or functional assay. This is another data set of the same source.
Assay [9] shares this target. Put plainly: SPR (Biacore); affinity at baseline. A general note: Surface plasmon resonance follows binding to a sensor surface in real time, without labels.

By Kd is commonly meant a measure of binding affinity in units of concentration. Low readings indicate tighter binding, high ones weaker binding. One may read the koff as a measure of how fast the partners let go of each other. A low value points to a long-lived complex. As a reminder, the kon is the rate constant with which the complex forms. Read a high kon as fast association. What is called IC50 is the concentration that gives 50% inhibition. A high value points to a need for much substance.

T1 sequence (Q92743 23-480 limits assumed): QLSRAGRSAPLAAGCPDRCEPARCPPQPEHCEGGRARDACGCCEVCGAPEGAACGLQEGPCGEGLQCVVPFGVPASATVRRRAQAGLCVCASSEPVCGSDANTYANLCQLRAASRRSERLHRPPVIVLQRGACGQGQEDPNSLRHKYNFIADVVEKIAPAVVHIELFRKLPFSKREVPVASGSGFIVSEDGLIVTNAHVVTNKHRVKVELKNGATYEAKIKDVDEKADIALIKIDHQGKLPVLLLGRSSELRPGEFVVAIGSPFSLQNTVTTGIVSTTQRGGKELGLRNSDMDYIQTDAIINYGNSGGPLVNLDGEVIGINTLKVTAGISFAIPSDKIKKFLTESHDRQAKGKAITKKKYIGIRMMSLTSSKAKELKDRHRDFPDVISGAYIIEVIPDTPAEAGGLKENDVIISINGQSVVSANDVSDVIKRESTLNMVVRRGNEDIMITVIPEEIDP

B1: antibody 65G8 (antibody, V domains shown)
VH: QVQLQQSGPQLVRPGASVKISCKASGYSFTSYWMHWVKQRPGQGLEWIGMIDPSDSETRLNQKFKDKATLTIDKSSSTAYMQLSSPTSEDSAVYYCTRDYFDYWGQGTTLTVSS
VL: QIVLTQSPAIMSTSPGEKVTMTCSASSSVSYMYWYQQKPGSSPRLLIYDTSNLASGVPVRFSGSGSGTSYSLTISRMEAEDAATYYCQQWSSYPYTFGGGTKLEIK
notes: Mouse hybridoma monoclonal antibody
For the molecule B1, in [1], the “IC50, Protease Assay-Casein substrate” value was determined as 0.06 nM and the “IC50, Protease Assay-H2-Opt peptide” value is 0.09 nM. In [2], this molecule came in with a Kd of 0.42 nM, a koff of 0.003 s⁻¹ and a kon of 6.9e+06 M⁻¹ s⁻¹.

B2: antibody 9F8 (antibody, V domains shown)
VH: QVQLQQPGAELVRPGSSVKLSCKASGYAFTTYWMHWVKQRPIQGLEWIGNIDPSDSETHYNQKFRDKATLTVDKSSSTAYMQLSSLTSEDSAVYYCARDYGAFDVWGTGTTVTVSS
VL: QAVVTQESALTTSSGETVTLTCRSSTGAVTTRNFASWVQEKPDHLFTGLIGGTNNRAPGVPARFSGSLIGDKAALTITGAQTEDEAIYFCALWYSNLWVFGGGTKLTVL
notes: as for B1
As for B2, in assay [1], the “IC50, Protease Assay-Casein substrate” value came to 0.19 nM and the “IC50, Protease Assay-H2-Opt peptide” value was determined as 0.12 nM. Besides, the Ki in assay [3] stood at 0.035 nM. For the same molecule, the Ki in assay [4] worked out at 0.092 nM. In [2], the Kd stood at 0.14 nM, the koff worked out at 0.0044 s⁻¹ and the kon turned out to be 3e+07 M⁻¹ s⁻¹.

B3: hz24F7.v2 S91A (antibody, human IgG1, kappa, N297G, V domains shown)
VH: QVQLVQSGAEVKKPGASVKVSCKASGYTFTDYEMHWVRQAPGQRLEWMGAIDPETGGTAYNQKFKGRVTITADKSASTAYMELSSLRSEDTAVYYCTREGYSYEGGGYYFDYWGQGTLVTVSS
VL: DIQMTQSPSSLSASVGDRVTITCSVSSSVSYMYWYQQKPGKAPKLLIYDTSNLASGVPSRFSGSGSGTDFTFTISSLQPEDIATYYCQQWASYPTFGQGTKLEIKR
notes: hz24F7.v2 with a substitution in light chain CDR3
For B3, in assay [5], the Kd is 0.0465 nM, the koff stood at 0.000169 s⁻¹ and the kon amounted to 3.63e+06 M⁻¹ s⁻¹.

B4: hz24F7.v2 S92D (antibody, human IgG1, kappa, N297G, V domains shown)
VH: QVQLVQSGAEVKKPGASVKVSCKASGYTFTDYEMHWVRQAPGQRLEWMGAIDPETGGTAYNQKFKGRVTITADKSASTAYMELSSLRSEDTAVYYCTREGYSYEGGGYYFDYWGQGTLVTVSS
VL: DIQMTQSPSSLSASVGDRVTITCSVSSSVSYMYWYQQKPGKAPKLLIYDTSNLASGVPSRFSGSGSGTDFTFTISSLQPEDIATYYCQQWSDYPTFGQGTKLEIKR
notes: as for B3
B4: in assay [5], the Kd was 0.0249 nM, the koff turned out to be 0.000217 s⁻¹ and the kon amounted to 8.7e+06 M⁻¹ s⁻¹. Besides, in assay [6], the “IC50, HTRA1 enzyme assay” value worked out at 0.067 nM.

B5: hz24F7.v2 S91L (antibody, human IgG1, kappa, N297G, V domains shown)
VH: QVQLVQSGAEVKKPGASVKVSCKASGYTFTDYEMHWVRQAPGQRLEWMGAIDPETGGTAYNQKFKGRVTITADKSASTAYMELSSLRSEDTAVYYCTREGYSYEGGGYYFDYWGQGTLVTVSS
VL: DIQMTQSPSSLSASVGDRVTITCSVSSSVSYMYWYQQKPGKAPKLLIYDTSNLASGVPSRFSGSGSGTDFTFTISSLQPEDIATYYCQQWLSYPTFGQGTKLEIKR
In [5], B5 came in with a Kd of 0.0439 nM, a dissociation rate constant (koff) of 0.000161 s⁻¹ and a kon of 3.67e+06 M⁻¹ s⁻¹. Further, the “IC50, HTRA1 enzyme assay” value in assay [6] was 0.084 nM.

B6: hz24F7.v2 S92Y (antibody, human IgG1, kappa, N297G, V domains shown)
VH: QVQLVQSGAEVKKPGASVKVSCKASGYTFTDYEMHWVRQAPGQRLEWMGAIDPETGGTAYNQKFKGRVTITADKSASTAYMELSSLRSEDTAVYYCTREGYSYEGGGYYFDYWGQGTLVTVSS
VL: DIQMTQSPSSLSASVGDRVTITCSVSSSVSYMYWYQQKPGKAPKLLIYDTSNLASGVPSRFSGSGSGTDFTFTISSLQPEDIATYYCQQWSYYPTFGQGTKLEIKR
notes: as for B3
In [5], B6 had a Kd of 0.0321 nM, a koff of 0.000275 s⁻¹ and a kon of 8.56e+06 M⁻¹ s⁻¹. Moreover, the “IC50, HTRA1 enzyme assay” value in assay [6] is 0.097 nM.

B7: hz24F7.v2 S92T (antibody, human IgG1, kappa, N297G, V domains shown)
VH: QVQLVQSGAEVKKPGASVKVSCKASGYTFTDYEMHWVRQAPGQRLEWMGAIDPETGGTAYNQKFKGRVTITADKSASTAYMELSSLRSEDTAVYYCTREGYSYEGGGYYFDYWGQGTLVTVSS
VL: DIQMTQSPSSLSASVGDRVTITCSVSSSVSYMYWYQQKPGKAPKLLIYDTSNLASGVPSRFSGSGSGTDFTFTISSLQPEDIATYYCQQWSTYPTFGQGTKLEIKR
notes: as for B3
With B7, in [5], binding was characterised by a dissociation constant (Kd) of 0.02 nM, the koff was found to be 0.000197 s⁻¹ and the kon was 9.81e+06 M⁻¹ s⁻¹. Further, in assay [6], the “IC50, HTRA1 enzyme assay” value was found to be 0.098 nM. Moreover, in assay [7], the “IC50, enzyme assay; sample stored pH 7.4, 40° C., 0 weeks” value is 67.5 pM; the “IC50, enzyme assay; sample stored pH 7.4, 40° C., 2 weeks” value came to 75.2 pM; the “IC50, enzyme assay; sample stored pH 7.4, 40° C., 4 weeks” value came to 93.7 pM.

B8: hz24F7.v2 S91T (antibody, human IgG1, kappa, N297G, V domains shown)
VH: QVQLVQSGAEVKKPGASVKVSCKASGYTFTDYEMHWVRQAPGQRLEWMGAIDPETGGTAYNQKFKGRVTITADKSASTAYMELSSLRSEDTAVYYCTREGYSYEGGGYYFDYWGQGTLVTVSS
VL: DIQMTQSPSSLSASVGDRVTITCSVSSSVSYMYWYQQKPGKAPKLLIYDTSNLASGVPSRFSGSGSGTDFTFTISSLQPEDIATYYCQQWTSYPTFGQGTKLEIKR
notes: as for B3
In assay [5], B8 displayed a Kd of 0.0266 nM, a koff of 0.000189 s⁻¹ and a kon of 7.1e+06 M⁻¹ s⁻¹.

B9: hz24F7.v2 S91Y (antibody, human IgG1, kappa, N297G, V domains shown)
VH: QVQLVQSGAEVKKPGASVKVSCKASGYTFTDYEMHWVRQAPGQRLEWMGAIDPETGGTAYNQKFKGRVTITADKSASTAYMELSSLRSEDTAVYYCTREGYSYEGGGYYFDYWGQGTLVTVSS
VL: DIQMTQSPSSLSASVGDRVTITCSVSSSVSYMYWYQQKPGKAPKLLIYDTSNLASGVPSRFSGSGSGTDFTFTISSLQPEDIATYYCQQWYSYPTFGQGTKLEIKR
notes: as for B3
In the case of B9, in assay [5], the Kd amounted to 0.0405 nM, the dissociation rate constant (koff) amounted to 0.000184 s⁻¹ and the kon came to 4.54e+06 M⁻¹ s⁻¹. Further, the “IC50, HTRA1 enzyme assay” value in assay [6] came to 0.07 nM. The molecule further came in with an IC50 at baseline in assay [8] of 0.07 nM. In [7], the “IC50, enzyme assay; sample stored pH 7.4, 40° C., 0 weeks” value amounted to 43.4 pM; the “IC50, enzyme assay; sample stored pH 7.4, 40° C., 2 weeks” value worked out at 42 pM; the “IC50, enzyme assay; sample stored pH 7.4, 40° C., 4 weeks” value was 54.3 pM. In [9], this molecule gave a Kd of 0.0405 nM, a koff of 0.000184 s⁻¹ and a kon of 4.54e+06 M⁻¹ s⁻¹.

B10: antibody 55B12 (antibody, V domains shown)
VH: QVQLQQPGAELVKPGASVKLSCKASGYTFTNYWMHWVKQRPGQGLEWIGNIDPSDSETHYNQKFKDKATLAVDKSSSTAYMQLSSLTSEDSAVYYCAREDSSGYGAYWGQGTLVTVSA
VL: QIVLTQSPAIMSASPGEKVTMTCSASSSVNYMHWYQQKSGTSPKRWIYDTSKLASGVPDRFSGSGSGTSYSLTISSMEAEDAATYYCQQWSSHPLTFGAGTKLELK
notes: as for B1
On to B10, for which, in assay [1], the “IC50, Protease Assay-Casein substrate” value amounted to 0.13 nM and the “IC50, Protease Assay-H2-Opt peptide” value was determined as 0.13 nM. For the same molecule, in [2], binding was characterised by a dissociation constant (Kd) of 0.45 nM, the koff turned out to be 0.017 s⁻¹ and the kon stood at 3.8e+07 M⁻¹ s⁻¹.

Values taken from patent US20220251241A1 (NGM BIOPHARMACEUTICALS, published 2022).
